Substitutions are numbered along the chain they refer to. Names may count otherwise.
B1: transketolase (TK) (Escherichia coli K-12; A282P/D469T/G506A/H192P/I365L/R520Q/S385Y) (protein)
chain: MSSRKELANAIRALSMDAVQKAKSGHPGAPMGMADIAEVLWRDFLKHNPQNPSWADRDRFVLSNGHGSMLIYSLLHLTGYDLPMEELKNFRQLHSKTPGHPEVGYTAGVETTTGPLGQGIANAVGMAIAEKTLAAQFNRPGHDIVDHYTYAFMGDGCMMEGISHEVCSLAGTLKLGKLIAFYDDNGISIDGPVEGWFTDDTAMRFEAYGWHVIRDIDGHDAASIKRAVEEARAVTDKPSLLMCKTIIGFGSPNKAGTHDSHGAPLGDAEIALTREQLGWKYPPFEIPSEIYAQWDAKEAGQAKESAWNEKFAAYAKAYPQEAAEFTRRMKGEMPSDFDAKAKEFIAKLQANPAKIASRKASQNALEAFGPLLPEFLGGSADLAPYNLTLWSGSKAINEDAAGNYIHYGVREFGMTAIANGISLHGGFLPYTSTFLMFVEYARNAVRMAALMKQRQVMVYTHDSIGLGETGPTHQPVEQVASLRVTPNMSTWRPCDQVESAVAWKYAVERQDGPTALILSQQNLAQQERTEEQLANIARGGYVLKDCAGQPELIFIATGSEVELAVAAYEKLTAEGVKARVVSMPSTDAFDKQDAAYRESVLPKAVTARVAVEAGIADYWYKYVGLNGAIVGMTTFGESAPAELLFEEFGFTVDNVVAKAKELL
notes: recombinant from plasmid pQR791, purified; homodimer
B2: transketolase (TK) (Escherichia coli K-12; D469T/R520Q/S385Y) (protein)
chain: B1 chain with P192H, P282A, L365I, A506G
notes: as for B1
B3: transketolase (TK) (Escherichia coli K-12; A282P/D469T/H192P/I365L/R520Q/S385Y) (protein)
chain: B1 chain with A506G
notes: as for B1
B4: transketolase (TK) (Escherichia coli K-12; D469T/H192P/R520Q/S385Y) (protein)
chain: B1 chain with P282A, L365I, A506G
notes: as for B1
B5: transketolase (TK) (Escherichia coli K-12; A282P/D469T/H192P/R520Q/S385Y) (protein)
chain: B1 chain with L365I, A506G
notes: as for B1
B6: transketolase (TK) (Escherichia coli K-12; A282P/D469T/R520Q/S385Y) (protein)
chain: B1 chain with P192H, L365I, A506G
notes: as for B1
B7: transketolase (TK) (Escherichia coli K-12; A282P/D469T/G506A/H192P/R520Q/S385Y) (protein)
chain: B1 chain with L365I
notes: as for B1

Substrate: O=Cc1cccc(C(=O)O)c1
Assay: initial rates by HPLC, Michaelis-Menten fit
Assay type: biochemical, Escherichia coli
Details: 50 mM Li-hydroxypyruvate, 50 mM Tris-HCl pH 7.0, 2.4 mM ThDP, 9 mM MgCl2, 22 °C
Description: initial rates by HPLC, Michaelis-Menten fit on transketolase (TK)

Row | Protein | Km | kcat | kcat/Km
1 | B1 | 2.3 (0.3) mM | 3.8 s⁻¹ | 1650 M⁻¹ s⁻¹
2 | B2 | 2.3 (0.3) mM | 2.8 s⁻¹ | 1220 M⁻¹ s⁻¹
3 | B3 | 1.3 (0.4) mM | 2.1 s⁻¹ | 1620 M⁻¹ s⁻¹
4 | B4 | 2.2 (0.4) mM | 3.5 s⁻¹ | 1590 M⁻¹ s⁻¹
5 | B5 | 1.3 (0.2) mM | 2.9 s⁻¹ | 2230 M⁻¹ s⁻¹
6 | B6 | 2.1 (0.2) mM | 3.2 s⁻¹ | 1520 M⁻¹ s⁻¹
7 | B7 | 2.7 (0.4) mM | 3.9 s⁻¹ | 1440 M⁻¹ s⁻¹
